Where “and” joins values, the source holds several entries; their conditions need not be identical. Identical values can stand only once.
Target: nitrogenase MoFe-protein (Azotobacter vinelandii) (UniProt P07328)
Test: cryo-EM structure; single particle cryoEM of the ADP-AlF4- stabilized complex of the two nitrogenase proteins; grids prepared anaerobically in the vinyl tent; carbon-layered grids

UniProt P07328, sequence (P07328 whole entry, chain 1 of 2): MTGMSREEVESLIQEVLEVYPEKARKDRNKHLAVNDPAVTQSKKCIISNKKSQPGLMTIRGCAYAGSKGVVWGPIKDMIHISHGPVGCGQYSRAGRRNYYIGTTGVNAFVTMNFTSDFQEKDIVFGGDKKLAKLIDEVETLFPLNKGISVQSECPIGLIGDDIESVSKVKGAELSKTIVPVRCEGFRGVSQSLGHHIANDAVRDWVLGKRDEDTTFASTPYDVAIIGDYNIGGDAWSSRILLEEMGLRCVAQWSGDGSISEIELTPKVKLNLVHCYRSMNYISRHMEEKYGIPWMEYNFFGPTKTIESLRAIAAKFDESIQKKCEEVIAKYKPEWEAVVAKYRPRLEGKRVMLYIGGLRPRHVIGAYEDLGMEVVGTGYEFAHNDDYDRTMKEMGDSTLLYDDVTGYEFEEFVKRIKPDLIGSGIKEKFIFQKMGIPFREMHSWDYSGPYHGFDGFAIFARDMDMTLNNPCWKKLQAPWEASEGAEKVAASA
UniProt P07328, sequence (P07329 whole entry, chain 2 of 2, further chain): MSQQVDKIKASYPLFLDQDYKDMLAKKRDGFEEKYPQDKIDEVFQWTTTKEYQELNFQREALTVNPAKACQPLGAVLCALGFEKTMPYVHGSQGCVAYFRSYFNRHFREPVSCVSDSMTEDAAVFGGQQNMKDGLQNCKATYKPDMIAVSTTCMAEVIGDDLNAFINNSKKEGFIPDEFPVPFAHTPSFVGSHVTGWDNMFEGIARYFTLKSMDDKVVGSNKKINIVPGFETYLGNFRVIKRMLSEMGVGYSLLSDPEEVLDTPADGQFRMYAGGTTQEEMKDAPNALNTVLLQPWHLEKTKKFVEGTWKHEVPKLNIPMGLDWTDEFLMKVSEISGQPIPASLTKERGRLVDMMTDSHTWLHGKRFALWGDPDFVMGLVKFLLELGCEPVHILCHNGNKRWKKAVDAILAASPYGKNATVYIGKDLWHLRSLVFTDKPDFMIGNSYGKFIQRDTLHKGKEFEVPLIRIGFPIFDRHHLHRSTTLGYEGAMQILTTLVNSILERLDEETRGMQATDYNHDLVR

## nitrogenase Fe-protein (enzyme)
  stoichiometry N (Fe-protein:MoFe-protein): 2 and 1
